Laboratory results: article PMC11915804, “In situ structures of the contractile nanomachine myophage Mu in both its extended and contracted states” (Journal of Virology, 2025)

T1: baseplate wedge protein 2 (BW2) gp47 (phage Mu, UniProt Q9T1V2 1-360)
T1 construct: baseplate wedge protein 2 gp47 of myophage Mu, as it stands in the virion; Two conformers (BW2-i, BW2-o) in each of the six wedges; Model deposited here; also called BW2-i; BW2-o; source: phage Mu virions grown on E. coli (ATCC 23724), purified (PEG 8000/NaCl precipitation, CsCl gradient)
T1 sequence (looked up): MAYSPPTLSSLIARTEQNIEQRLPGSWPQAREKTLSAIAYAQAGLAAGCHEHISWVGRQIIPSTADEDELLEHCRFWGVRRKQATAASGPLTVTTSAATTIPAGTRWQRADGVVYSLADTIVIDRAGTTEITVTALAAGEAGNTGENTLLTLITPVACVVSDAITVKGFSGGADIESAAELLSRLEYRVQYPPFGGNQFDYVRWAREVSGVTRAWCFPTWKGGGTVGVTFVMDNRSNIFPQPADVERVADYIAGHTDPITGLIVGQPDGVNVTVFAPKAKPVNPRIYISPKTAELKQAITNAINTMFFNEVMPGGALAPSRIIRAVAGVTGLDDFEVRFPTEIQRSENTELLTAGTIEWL

T2: G(+) type fiber protein gp49 (phage Mu, UniProt Q9T1V0 1-504)
T2 construct: G(+) type tail fiber protein gp49 of myophage Mu, as it stands in the virion; only the N-terminus was modelled; Trimer; six fibers in the baseplate; Model deposited here; source: phage Mu virions grown on E. coli (ATCC 23724), purified (PEG 8000/NaCl precipitation, CsCl gradient)
T2 sequence (looked up): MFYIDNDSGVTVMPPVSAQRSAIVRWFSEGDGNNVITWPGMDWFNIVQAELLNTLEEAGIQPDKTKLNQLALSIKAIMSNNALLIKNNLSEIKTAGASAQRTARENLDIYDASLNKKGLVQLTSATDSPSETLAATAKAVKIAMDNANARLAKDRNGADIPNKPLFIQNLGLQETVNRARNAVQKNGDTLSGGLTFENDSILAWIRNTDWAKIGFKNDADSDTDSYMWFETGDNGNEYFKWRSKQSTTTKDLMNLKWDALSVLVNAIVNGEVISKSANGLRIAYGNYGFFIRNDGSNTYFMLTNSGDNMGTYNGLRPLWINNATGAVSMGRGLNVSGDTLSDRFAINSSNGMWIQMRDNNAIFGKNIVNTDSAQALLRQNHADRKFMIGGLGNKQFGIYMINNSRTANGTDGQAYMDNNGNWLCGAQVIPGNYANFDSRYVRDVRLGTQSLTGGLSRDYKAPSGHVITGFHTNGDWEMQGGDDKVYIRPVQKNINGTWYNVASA

T3: tube initiator protein gp43 (phage Mu, UniProt P08557 1-495)
T3 construct: tube initiator protein gp43 (N protein, DNA circularization protein) of myophage Mu, as it stands in the virion; Hexamer; Model deposited here; also called N protein; DNA circularization protein; source: phage Mu virions grown on E. coli (ATCC 23724), purified (PEG 8000/NaCl precipitation, CsCl gradient)
T3 sequence (looked up): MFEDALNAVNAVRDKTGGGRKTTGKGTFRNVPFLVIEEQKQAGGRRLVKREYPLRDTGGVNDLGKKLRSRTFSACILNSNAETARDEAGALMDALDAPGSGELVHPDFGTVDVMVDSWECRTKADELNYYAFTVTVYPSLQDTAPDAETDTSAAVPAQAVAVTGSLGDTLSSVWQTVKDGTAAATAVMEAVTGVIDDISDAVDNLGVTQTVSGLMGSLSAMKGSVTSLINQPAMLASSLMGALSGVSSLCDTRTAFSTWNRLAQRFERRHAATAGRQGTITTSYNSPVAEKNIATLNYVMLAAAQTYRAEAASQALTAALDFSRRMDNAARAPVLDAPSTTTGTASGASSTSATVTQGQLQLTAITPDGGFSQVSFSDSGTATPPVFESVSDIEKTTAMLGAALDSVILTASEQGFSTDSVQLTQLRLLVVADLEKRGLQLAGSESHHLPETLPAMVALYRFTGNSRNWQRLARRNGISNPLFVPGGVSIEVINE

T4: hub protein gp44 (phage Mu, UniProt P08558 1-379)
T4 construct: baseplate hub protein gp44 of myophage Mu, as it stands in the virion; Trimer; Model deposited here; source: phage Mu virions grown on E. coli (ATCC 23724), purified (PEG 8000/NaCl precipitation, CsCl gradient)
T4 sequence (looked up): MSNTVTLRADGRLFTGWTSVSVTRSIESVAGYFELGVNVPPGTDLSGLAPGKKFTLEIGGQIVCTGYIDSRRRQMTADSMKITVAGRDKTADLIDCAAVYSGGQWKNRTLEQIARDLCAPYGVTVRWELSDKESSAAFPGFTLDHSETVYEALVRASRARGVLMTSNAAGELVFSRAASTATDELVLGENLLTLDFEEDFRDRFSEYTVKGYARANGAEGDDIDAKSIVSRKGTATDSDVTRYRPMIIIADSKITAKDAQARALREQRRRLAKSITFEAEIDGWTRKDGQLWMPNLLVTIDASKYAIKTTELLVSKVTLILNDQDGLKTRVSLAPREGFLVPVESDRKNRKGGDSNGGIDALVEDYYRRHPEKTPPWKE

T5: tail sheath protein gp39 (phage Mu, UniProt P79678 1-495)
T5 construct: tail sheath protein gp39 of myophage Mu, as it stands in the virion; Hexameric rings, 30 of them stacked in the tail; Model deposited here; source: phage Mu virions grown on E. coli (ATCC 23724), purified (PEG 8000/NaCl precipitation, CsCl gradient)
T5 sequence (looked up): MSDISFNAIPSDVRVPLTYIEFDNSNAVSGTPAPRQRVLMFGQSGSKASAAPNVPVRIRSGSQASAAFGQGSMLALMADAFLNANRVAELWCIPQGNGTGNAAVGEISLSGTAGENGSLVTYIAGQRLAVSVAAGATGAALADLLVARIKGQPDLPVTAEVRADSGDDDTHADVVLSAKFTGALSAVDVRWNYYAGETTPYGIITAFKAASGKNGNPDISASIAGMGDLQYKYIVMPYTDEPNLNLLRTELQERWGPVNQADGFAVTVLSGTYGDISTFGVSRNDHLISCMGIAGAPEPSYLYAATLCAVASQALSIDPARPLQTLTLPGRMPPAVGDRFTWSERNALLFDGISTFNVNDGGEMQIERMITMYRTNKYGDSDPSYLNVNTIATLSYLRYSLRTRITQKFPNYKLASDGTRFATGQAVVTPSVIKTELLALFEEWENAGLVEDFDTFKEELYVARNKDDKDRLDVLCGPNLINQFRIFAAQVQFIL

B1: baseplate wedge protein 3 (BW3) gp48 (natural protein, phage Mu, UniProt Q9T1V1 1-180, looked up)
chain: MAVTPWQTAFLQLLPSGLAWNKSPDSKLSALAQAISDVIATAADDARQMLRERFPSTSRWYLGEWESFLGLPDCTSENGTLSERQRAAANKMRMTGNLSRRFYEWLAAQYGFTVRLTDSTEGQWVTQVNIYGIKNYRNATVLDNVLTPLRVYESGALECLLEKYKPAHQIYKFVYHDGDN
notes: baseplate wedge protein 3 gp48 of myophage Mu, as it stands in the virion; One copy in each of the six wedges; Model deposited here; source: phage Mu virions grown on E. coli (ATCC 23724), purified (PEG 8000/NaCl precipitation, CsCl gradient)
B2: spike protein gp45 (natural protein, phage Mu, UniProt Q9T1V4 1-197, looked up)
chain: MERVNDSALNRLLTPLMRRVRLMLARAVVNVINDGRKVQNLQVGLLDDEESDEVERLQNYGHFSVPLPGAEALIACVGAQRDQGIAVVVEDRRYRPTNLEPGDAGIYHHEGHRIRLTKDGRCIITCKTVEVYADESMTVDTPRTTFTGDVEIQKGLGVKGKSQFDSNITAPDAIINGKSTDKHIHRGDSGGTTGPMQ
notes: baseplate spike protein gp45 of myophage Mu, as it stands in the virion; Trimer; Model deposited here; source: phage Mu virions grown on E. coli (ATCC 23724), purified (PEG 8000/NaCl precipitation, CsCl gradient)
B3: baseplate wedge protein 1 (BW1) gp46 (natural protein, phage Mu, UniProt Q9T1V3 1-145, looked up)
chain: MTDLAIIWTNGRGDIAQDGIDMLTDDSLTTDVTISLFTDRRALDSDTLPDGSDDRRGWWGDSYRDRPIGSRLWLLSREKATPDTLERARGYAEEALEWLKTAGRVSAINVRAEQLHQGWLYLYIALTLPDGSVIPYEFKAAFNGV
notes: baseplate wedge protein 1 gp46 of myophage Mu, as it stands in the virion; One copy in each of the six wedges; Model deposited here; source: phage Mu virions grown on E. coli (ATCC 23724), purified (PEG 8000/NaCl precipitation, CsCl gradient)

Tests used:
Assay in all cases: cryo-EM structure; purified phage Mu virions in the extended state (native phage) in phage buffer (10 mM MgCl2, 5 mM NaCl, 10 mM Tris-HCl, pH 7.4); icosahedral, symmetry-mismatch and local reconstruction; 3.2 Å (3-fold capsid), 3.4 Å (portal-adaptor), 3.5 Å (terminator-tail), 3.3 Å (baseplate)
[1] = molecular target: T1, baseplate wedge protein 2 (BW2) gp47; conditions: both partners purified
[2] = molecular target: T2, G(+) type fiber protein gp49; conditions: both partners purified
[3] = molecular target: T3, tube initiator protein gp43; conditions: both partners purified
[4] = molecular target: T4, hub protein gp44; conditions: both partners purified
[5] = molecular target: the molecule itself
[6] = molecular target: B1; conditions: both partners purified
[7] = molecular target: T5, tail sheath protein gp39; conditions: both partners purified

Binder | binding result [1] | binding result [2] | binding result [3] | binding result [4] | stoichiometry N [5] | binding result [6] | binding result [7]
B1 | binds | binds | binds | – | – | – | –
B2 | – | – | – | binds | 3 | – | –
B3 | binds | – | binds | – | – | binds | binds
